{"source": "paper PMC11805746", "about": "(Discover Nano, 2025)", "binders": {"B1": {"name": "methemoglobin (oxidized human hemoglobin A) (complex)", "chain 1": "not shown", "chain 2": "not shown"}}, "molecular_target": "IsdB point mutant P173A (IsdB^P173A) (Staphylococcus aureus, UniProt Q2FZF0 41-613, P173A)", "assay": "atomic force spectroscopy"}
{"binder": "B1", "values": [{"measurement": "koff", "value": 0.0025, "unit": "s⁻¹"}]}
